Data set [1] relates to HeLa Kyoto. Kind of data set: solubility in G1/S (NP-40 vs SDS abundance) (log2 ratio); higher = more soluble. The note with it: cell cycle stage: G1/S.
Data set [2] concerns HeLa Kyoto. Kind of data set: solubility change mitosis vs G1/S (difference of NP-40 vs SDS log2 ratios) (log2 ratio difference); higher = more soluble in mitosis.

The text below walks through data of the supplement of paper PMC5998384.
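Throughout, for solubility change mitosis vs G1/S (difference of NP-40 vs SDS log2 ratios): synchronized HeLa Kyoto cells (double thymidine block for G1/S, nocodazole release for mitosis), protein amounts in NP-40 versus SDS lysates quantified by mass spectrometry, three biological replicates.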
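Throughout, for solubility in G1/S (NP-40 vs SDS abundance): HeLa Kyoto cells arrested at G1/S by double thymidine block, proteins quantified by TMT10plex mass spectrometry in mild NP-40 versus SDS extracts, three biological replicates.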

On to “MRFAWTVLLLGPLQLCALVHCAPPAAGQQQPPREPPAAPGAWRQQIQWENNGQVFSLLSLGSQYQPQRRRDPGAAVPGAANASAQQPRTPILLIRDNRTAAARTRTAGSSGVTAGRPRPTARHWFQAGYSTSRAREAGASRAENQTAPGEVPALSNLRPPSRVDGMVGDDPYNPYKYSDDNPYYNYYDTYERPRPGGRYRPGYGTGYFQYGLPDLVADPYYIQASTYVQKMSMYNLRCAAEENCLASTAYRADVRDYDHRVLLRFPQRVKNQGTSDFLPSRPRYSWEWHSCHQHYHSMDEFSHYDLLDANTQRRVAEGHKASFCLEDTSCDYGYHRRFACTAHTQGLSPGCYDTYGADIDCQWIDITDVKPGNYILKVSVNPSYLVPESDYTNNVVRCDIRYTGHHAYASGCTISPY [LOX]”, for which the “solubility in G1/S (log2)” value with HeLa Kyoto [1] is -0.354. The “solubility change mitosis (log2)” value with HeLa Kyoto [2] was 0.257.
The corresponding values for “MRGPSGALWLLLALRTVLGGMEVRWCATSDPEQHKCGNMSEAFREAGIQPSLLCVRGTSADHCVQLIAAQEADAITLDGGAIYEAGKEHGLKPVVGEVYDQEVGTSYYAVAVVRRSSHVTIDTLKGVKSCHTGINRTVGWNVPVGYLVESGRLSVMGCDVLKAVSDYFGGSCVPGAGETSYSESLCRLCRGDSSGEGVCDKSPLERYYDYSGAFRCLAEGAGDVAFVKHSTVLENTDGKTLPSWGQALLSQDFELLCRDGSRADVTEWRQCHLARVPAHAVVVRADTDGGLIFRLLNEGQRLFSHEGSSFQMFSSEAYGQKDLLFKDSTSELVPIATQTYEAWLGHEYLHAMKGLLCDPNRLPPYLRWCVLSTPEIQKCGDMAVAFRRQRLKPEIQCVSAKSPQHCMERIQAEQVDAVTLSGEDIYTAGKTYGLVPAAGEHYAPEDSSNSYYVVAVVRRDSSHAFTLDELRGKRSCHAGFGSPAGWDVPVGALIQRGFIRPKDCDVLTAVSEFFNASCVPVNNPKNYPSSLCALCVGDEQGRNKCVGNSQERYYGYRGAFRCLVENAGDVAFVRHTTVFDNTNGHNSEPWAAELRSEDYELLCPNGARAEVSQFAACNLAQIPPHAVMVRPDTNIFTVYGLLDKAQDLFGDDHNKNGFKMFDSSNYHGQDLLFKDATVRAVPVGEKTTYRGWLGLDYVAALEGMSSQQCSGAAAPAPGAPLLPLLLPALAARLLPPAL [MFI2]” are -0.519 and -0.0542.
For the sequence “MRPKTFPATTYSGNSRQRLQEIREGLKQPSKSSVQGLPAGPNSDTSLDAKVLGSKDATRQQQQMRATPKFGPYQKALREIRYSLLPFANESGTSAAAEVNRQMLQELVNAGCDQEMAGRALKQTGSRSIEAALEYISKMGYLDPRNEQIVRVIKQTSPGKGLMPTPVTRRPSFEGTGDSFASYHQLSGTPYEGPSFGADGPTALEEMPRPYVDYLFPGVGPHGPGHQHQHPPKGYGASVEAAGAHFPLQGAHYGRPHLLVPGEPLGYGVQRSPSFQSKTPPETGGYASLPTKGQGGPPGAGLAFPPPAAGLYVPHPHHKQAGPAAHQLHVLGSRSQVFASDSPPQSLLTPSRNSLNVDLYELGSTSVQQWPAATLARRDSLQKPGLEAPPRAHVAFRPDCPVPSRTNSFNSHQPRPGPPGKAEPSLPAPNTVTAVTAAHILHPVKSVRVLRPEPQTAVGPSHPAWVPAPAPAPAPAPAPAAEGLDAKEEHALALGGAGAFPLDVEYGGPDRRCPPPPYPKHLLLRSKSEQYDLDSLCAGMEQSLRAGPNEPEGGDKSRKSAKGDKGGKDKKQIQTSPVPVRKNSRDEEKRESRIKSYSPYAFKFFMEQHVENVIKTYQQKVNRRLQLEQEMAKAGLCEAEQEQMRKILYQKESNYNRLKRAKMDKSMFVKIKTLGIGAFGEVCLACKVDTHALYAMKTLRKKDVLNRNQVAHVKAERDILAEADNEWVVKLYYSFQDKDSLYFVMDYIPGGDMMSLLIRMEVFPEHLARFYIAELTLAIESVHKMGFIHRDIKPDNILIDLDGHIKLTDFGLCTGFRWTHNSKYYQKGSHVRQDSMEPSDLWDDVSNCRCGDRLKTLEQRARKQHQRCLAHSLVGTPNYIAPEVLLRKGYTQLCDWWSVGVILFEMLVGQPPFLAPTPTETQLKVINWENTLHIPAQVKLSPEARDLITKLCCSADHRLGRNGADDLKAHPFFSAIDFSSDIRKQPAPYVPTISHPMDTSNFDPVDEESPWNDASEGSTKAWDTLTSPNNKHPEHAFYEFTFRRFFDDNGYPFRCPKPSGAEASQAESSDLESSDLVDQTEGCQPVYV [LATS2]”, the “solubility in G1/S (log2)” value with HeLa Kyoto [1] stood at 0.178. In addition, the “solubility change mitosis (log2)” value with HeLa Kyoto [2] is -0.0575.
The like results for “MRRKGRCHRGSAARHPSSPCSVKHSPTRETLTYAQAQRMVEIEIEGRLHRISIFDPLEIILEDDLTAQEMSECNSNKENSERPPVCLRTKRHKNNRVKKKNEALPSAHGTPASASALPEPKVRIVEYSPPSAPRRPPVYYKFIEKSAEELDNEVEYDMDEEDYAWLEIVNEKRKGDCVPAVSQSMFEFLMDRFEKESHCENQKQGEQQSLIDEDAVCCICMDGECQNSNVILFCDMCNLAVHQECYGVPYIPEGQWLCRHCLQSRARPADCVLCPNKGGAFKKTDDDRWGHVVCALWIPEVGFANTVFIEPIDGVRNIPPARWKLTCYLCKQKGVGACIQCHKANCYTAFHVTCAQKAGLYMKMEPVKELTGGGTTFSVRKTAYCDVHTPPGCTRRPLNIYGDVEMKNGVCRKESSVKTVRSTSKVRKKAKKAKKALAEPCAVLPTVCAPYIPPQRLNRIANQVAIQRKKQFVERAHSYWLLKRLSRNGAPLLRRLQSSLQSQRSSQQRENDEEMKAAKEKLKYWQRLRHDLERARLLIELLRKREKLKREQVKVEQVAMELRLTPLTVLLRSVLDQLQDKDPARIFAQPVSLKEVPDYLDHIKHPMDFATMRKRLEAQGYKNLHEFEEDFDLIIDNCMKYNARDTVFYRAAVRLRDQGGVVLRQARREVDSIGLEEASGMHLPERPAAAPRRPFSWEDVDRLLDPANRAHLGLEEQLRELLDMLDLTCAMKSSGSRSKRAKLLKKEIALLRNKLSQQHSQPLPTGPGLEGFEEDGAALGPEAGEEVLPRLETLLQPRKRSRSTCGDSEVEEESPGKRLDAGLTNGFGGARSEQEPGGGLGRKATPRRRCASESSISSSNSPLCDSSFNAPKCGRGKPALVRRHTLEDRSELISCIENGNYAKAARIAAEVGQSSMWISTDAAASVLEPLKVVWAKCSGYPSYPALIIDPKMPRVPGHHNGVTIPAPPLDVLKIGEHMQTKSDEKLFLVLFFDNKRSWQWLPKSKMVPLGIDETIDKLKMMEGRNSSIRKAVRIAFDRAMNHLSRVHGEPTSDLSDID [BRD1]” were, in that order, -0.879 and 0.194.
As to “MRRSRSSAAAKLRGQKRSGASGASAAPAASAAAALAPSATRTRRSASQAGSKSQAVEKPPSEKPRLRRSSPRAQEEGPGEPPPPELALLPPPPPPPPTPATPTSSASNLDLGEQRERWETFQKRQKLTSEGAAKLLLDTFEYQGLVKHTGGCHCGAVRFEVWASADLHIFDCNCSICKKKQNRHFIVPASRFKLLKGAEHITTYTFNTHKAQHTFCKRCGVQSFYTPRSNPGGFGIAPHCLDEGTVRSMVTEEFNGSDWEKAMKEHKTIKNMSKE [CENPV]”, the “solubility in G1/S (log2)” value in the data set with HeLa Kyoto [1] was -2.01. Moreover, the “solubility change mitosis (log2)” value with HeLa Kyoto [2] was determined as 0.822.
Turning to “MRSLRKKREKPRPEQWKGLPGPPRAPEPEDVAVPGGVDLLTLPQLCFPGGVCVATEPKEDCVHFLVLTDVCGNRTYGVVAQYYRPLHDEYCFYNGKTHRECPGCFVPFAVCVVSRFPYYNSLKDCLSCLLALLKPCKDFEVDSHIKDFAAKLSLIPSPPPGPLHLVFNMKSLQIVLPARADPESPILDLDLHLPLLCFRPEKVLQILTCILTEQRIVFFSSDWALLTLVTECFMAYLYPLQWQHPFVPILSDQMLDFVMAPTSFLMGCHLDHFEEVSKEADGLVLINIDHGSITYSKSTDDNVDIPDVPLLAAQTFIQRVQSLQLHHELHAAHLLSSTDLKEGRAHRRSWQQKLNCQIQQTTLQLLVSIFRDVKNHLNYEHRVFNSEEFLKTRAPGDHQFYKQVLDTYMFHSFLKARLNRRMDAFAQMDLDTQSEEDRINGMLLSPRRPTVEKRASRKSSHLHVTHRRMVVSMPNLQDIAMPELAPRNSSLRLTDTAGCRGSSAVLNVTPKSPYTFKIPEIHFPLESKCVQAYHAHFVSMLSEAMCFLAPDNSLLLARYLYLRGLVYLMQGQLLNALLDFQNLYKTDIRIFPTDLVKRTVESMSAPEWEGAEQAPELMRLISEILDKPHEASKLDDHVKKFKLPKKHMQLGDFMKRVQESGIVKDASIIHRLFEALTVGQEKQIDPETFKDFYNCWKETEAEAQEVSLPWLVMEHLDKNECVCKLSSSVKTNLGVGKIAMTQKRLFLLTEGRPGYLEISTFRNIEEVRRTTTTFLLRRIPTLKIRVASKKEVFEANLKTECDLWHLMVKEMWAGKKLADDHKDPHYVQQALTNVLLMDAVVGTLQSPGAIYAASKLSYFDKMSNEMPMTLPETTLETLKHKINPSAGEAFPQAVDVLLYTPGHLDPAEKVEDAHPKLWCALSEGKVTVFNASSWTIHQHSFKVGTAKVNCMVMADQNQVWVGSEDSVIYIINVHSMSCNKQLTAHCSSVTDLIVQDGQEAPSNVYSCSMDGMVLVWNVSTLQVTSRFQLPRGGLTSIRLHGGRLWCCTGNSIMVMKMNGSLHQELKIEENFKDTSTSFLAFQLLPEEEQLWAACAGRSEVYIWSLKDLAQPPQRVPLEDCSEINCMIRVKKQVWVGSRGLGQGTPKGKIYVIDAERKTVEKELVAHMDTVRTLCSAEDRYVLSGSGREEGKVAIWKGE [DENND3]”, the “solubility in G1/S (log2)” value in the data set on HeLa Kyoto [1] was -0.339. For the same sequence, in the data set on HeLa Kyoto [2], the “solubility change mitosis (log2)” value is -0.197.
As to “MSANNSPPSAQKSVLPTAIPAVLPAASPCSSPKTGLSARLSNGSFSAPSLTNSRGSVHTVSFLLQIGLTRESVTIEAQELSLSAVKDLVCSIVYQKFPECGFFGMYDKILLFRHDMNSENILQLITSADEIHEGDLVEVVLSALATVEDFQIRPHTLYVHSYKAPTFCDYCGEMLWGLVRQGLKCEGCGLNYHKRCAFKIPNNCSGVRKRRLSNVSLPGPGLSVPRPLQPEYVALPSEESHVHQEPSKRIPSWSGRPIWMEKMVMCRVKVPHTFAVHSYTRPTICQYCKRLLKGLFRQGMQCKDCKFNCHKRCASKVPRDCLGEVTFNGEPSSLGTDTDIPMDIDNNDINSDSSRGLDDTEEPSPPEDKMFFLDPSDLDVERDEEAVKTISPSTSNNIPLMRVVQSIKHTKRKSSTMVKEGWMVHYTSRDNLRKRHYWRLDSKCLTLFQNESGSKYYKEIPLSEILRISSPRDFTNISQGSNPHCFEIITDTMVYFVGENNGDSSHNPVLAATGVGLDVAQSWEKAIRQALMPVTPQASVCTSPGQGKDHKDLSTSISVSNCQIQENVDISTVYQIFADEVLGSGQFGIVYGGKHRKTGRDVAIKVIDKMRFPTKQESQLRNEVAILQNLHHPGIVNLECMFETPERVFVVMEKLHGDMLEMILSSEKSRLPERITKFMVTQILVALRNLHFKNIVHCDLKPENVLLASAEPFPQVKLCDFGFARIIGEKSFRRSVVGTPAYLAPEVLRSKGYNRSLDMWSVGVIIYVSLSGTFPFNEDEDINDQIQNAAFMYPPNPWREISGEAIDLINNLLQVKMRKRYSVDKSLSHPWLQDYQTWLDLREFETRIGERYITHESDDARWEIHAYTHNLVYPKHFIMAPNPDDMEEDP [PRKD3]”, in the data set on HeLa Kyoto [1], the “solubility in G1/S (log2)” value is -0.25. For the same sequence, the “solubility change mitosis (log2)” value in the data set on HeLa Kyoto [2] was -0.119.
The like results for “MSEIRKDTLKAILLELECHFTWNLLKEDIDLFEVEDTIGQQLEFLTTKSRLALYNLLAYVKHLKGQNKDALECLEQAEEIIQQEHSDKEEVRSLVTWGNYAWVYYHMDQLEEAQKYTGKIGNVCKKLSSPSNYKLECPETDCEKGWALLKFGGKYYQKAKAAFEKALEVEPDNPEFNIGYAITVYRLDDSDREGSVKSFSLGPLRKAVTLNPDNSYIKVFLALKLQDVHAEAEGEKYIEEILDQISSQPYVLRYAAKFYRRKNSWNKALELLKKALEVTPTSSFLHHQMGLCYRAQMIQIKKATHNRPKGKDKLKVDELISSAIFHFKAAMERDSMFAFAYTDLANMYAEGGQYSNAEDIFRKALRLENITDDHKHQIHYHYGRFQEFHRKSENTAIHHYLEALKVKDRSPLRTKLTSALKKLSTKRLCHNALDVQSLSALGFVYKLEGEKRQAAEYYEKAQKIDPENAEFLTALCELRLSI [IFIT5]” were, in that order, 0.129 and 0.0621.
